Data published in publication PMC12259950.

Molecular target: 4-1BB receptor (human) (UniProt Q07011)
Experiment: ELISA; antigen (4-1BB 0.5 µg/mL in carbonate buffer; BSA or S100P for cross-reactivity) adsorbed on the plate, 37 °C 1 h; blocked with 1% milk powder; culture fluid with VHH mixed 1:1 with 2% milk powder, 1 h 37 °C; detected by 9E10 anti-myc and an HRP conjugate, TMB, 450 nm; 2 technical …

UniProt Q07011, sequence (Q07011 24-255): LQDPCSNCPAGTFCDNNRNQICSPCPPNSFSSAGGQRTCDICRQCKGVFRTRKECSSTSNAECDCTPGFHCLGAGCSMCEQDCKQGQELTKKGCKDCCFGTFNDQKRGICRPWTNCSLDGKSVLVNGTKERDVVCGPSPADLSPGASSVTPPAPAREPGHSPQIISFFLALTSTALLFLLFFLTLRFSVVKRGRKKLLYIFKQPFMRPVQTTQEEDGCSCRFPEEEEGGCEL

ELISA signal intensity, fold lower than the positive control: 10 fold
B1: VHH_11 (VHH)
VHH: QVQLVESGGGLVQPGGSLRLSCAASGYSYYYYSMGWFRQAPGQGTEFVAAISSYYYSSYYADSVKGRFTISRDNSKNTLYLQMNSLRAEDTAVYYCAASYYSGSYYSGFDYWGQGTQVTVS
